{"source": "patent US11214614B2", "about": "“LTBP complex-specific inhibitors of TGFβ and uses thereof” (Scholar Rock, Inc., priority 2019, dated 2022)", "molecules": {"B1": {"name": "SR-AB40: cycle 3 light chain-optimized antibody, lineage SR-AB23; CDRs SEQ ID NO: 154-159 (antibody, V domains shown)", "VH": "QVQLVESGGGVVQPGRSLRLSCAASGFTFRSYVMHWVRQAPGKGLEWVAVISHEGSLKYYADSVKGRFTISRDNSKNTLYLQMNSLRAEDTAVYYCARPRIAARRGGFGYWGQGTLVTVSS", "VL": "NFMLTQPHSVSESPGKTVTISCTRSSGNIDNNYVQWYQQRPGSSPTTVIYEDNQRPSGVPDRFSGSIDSSSNSASLTISGLKTEDEADYYCQSYDYSNQGVVFGGGTKLTVL"}, "B2": {"name": "SR-AB62: cycle 3 light chain-optimized antibody, lineage SR-AB24; CDRs SEQ ID NO: 286-291 (antibody, V domains shown)", "VH": "QLQLQESGPGLAKPSETLSLTCTVSGGSIRSSSYYWGWIRQPPGKGLEWIGSISYSATTYYNPSLKSRVTISVDTSKNQFSLKLSSVTAADTAVYYCASDPSYDSAAGMDVWGQGTTVTVSS", "VL": "DIQMTQSPSSLSASVGDRVTITCRASKVISSYLNWYQQKPGKAPKLLIYYASSLQSGVPSRFSGSGSGTDFTLTISSLQPEDFATYYCQQSNDWPFTFGGGTKVEIK"}, "B3": {"name": "SR-AB64: cycle 3 light chain-optimized antibody, lineage SR-AB26; CDRs SEQ ID NO: 298-303 (antibody, V domains shown)", "VH": "B2 VH with A12V, S99G, A106I, D110Q", "VL": "B2 VL with K27Q, V28S, S31Y, Y50S, L54R, S91G, N92F, W94F, F96L"}, "B4": {"name": "SR-AB54 Fab (antibody, V domains shown)", "VH": "B1 VH with L57G, R98L, Y110S", "VL": "B1 VL with N31Y, Q54V, Y96S, S97D, G100R"}, "B5": {"name": "SR-AB50 Fab (antibody, V domains shown)", "VH": "B1 VH with L57G, Y110T", "VL": "B1 VL with N31Y, Q54V, Y96S, S97D, G100R"}, "B6": {"name": "SR-AB53 Fab (antibody, V domains shown)", "VH": "B1 VH with L57G, Y110T", "VL": "B1 VL with N31Y, Q54V, S93G, Y96W, S97D, N98T"}, "B7": {"name": "SR-AB49 Fab (antibody, V domains shown)", "VH": "B1 VH with L57G, Y110S", "VL": "B1 VL with N31Y, Q54V, S93G, Y96W, S97D, N98T"}, "B8": {"name": "SR-AB42 Fab (antibody, V domains shown)", "VH": "B1 VH", "VL": "B1 VL with S97D, N98T"}, "B9": {"name": "SR-AB55 Fab (antibody, V domains shown)", "VH": "B1 VH with L57G, R98L, Y110S", "VL": "B1 VL with N31Y, Q54V, S97D, G100A"}, "B10": {"name": "SR-AB59 Fab (antibody, V domains shown)", "VH": "B1 VH with L57G, R98L, Y110T", "VL": "B1 VL with N31Y, Q54V, S97D, G100A"}, "B11": {"name": "SR-Ab56 Fab (antibody, V domains shown)", "VH": "B1 VH with L57G, R98L, Y110S", "VL": "B1 VL with N31Y, Q54V, S97D, N98T"}, "B12": {"name": "SR-AB52 Fab (antibody, V domains shown)", "VH": "B1 VH with L57G, Y110T", "VL": "B1 VL with N31Y, Q54V, S97D, N98T"}, "B13": {"name": "SR-AB57 Fab (antibody, V domains shown)", "VH": "B1 VH with L57G, R98L, Y110S", "VL": "B1 VL with N31Y, Q54V, S93G, Y96W, S97D, N98T"}, "B14": {"name": "SR-AB58 Fab (antibody, V domains shown)", "VH": "B1 VH with L57G, R98L, Y110T", "VL": "B1 VL with N31Y, Q54V, Y96S, S97D, G100R"}, "B15": {"name": "SR-AB60 Fab (antibody, V domains shown)", "VH": "B1 VH with L57G, R98L, Y110T", "VL": "B1 VL with N31Y, Q54V, S97D, N98T"}, "B16": {"name": "SR-AB23 Fab (antibody, V domains shown)", "VH": "B1 VH", "VL": "B1 VL with Y96S, S97D"}, "B17": {"name": "SR-AB47 Fab (antibody, V domains shown)", "VH": "B1 VH with L57G, Y110S", "VL": "B1 VL with N31Y, Q54V, S97D, G100A"}}, "note": "Changes are numbered by the printed parent chain.", "data": [{"molecular_target": "huGARP proTGFβ1 (Homo sapiens, UniProt P01137)", "sequence (P01137 30-390)": "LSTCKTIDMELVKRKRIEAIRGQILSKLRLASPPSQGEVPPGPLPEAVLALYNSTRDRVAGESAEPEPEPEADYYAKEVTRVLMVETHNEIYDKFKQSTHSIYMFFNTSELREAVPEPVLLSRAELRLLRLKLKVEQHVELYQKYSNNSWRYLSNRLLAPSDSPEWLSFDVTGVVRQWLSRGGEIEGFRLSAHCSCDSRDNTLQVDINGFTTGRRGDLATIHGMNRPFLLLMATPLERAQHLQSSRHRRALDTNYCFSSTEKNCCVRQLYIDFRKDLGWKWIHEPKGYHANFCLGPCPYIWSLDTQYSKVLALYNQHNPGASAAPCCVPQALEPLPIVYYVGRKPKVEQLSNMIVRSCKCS", "sequence (Q14392 18-627 partner limits assumed)": "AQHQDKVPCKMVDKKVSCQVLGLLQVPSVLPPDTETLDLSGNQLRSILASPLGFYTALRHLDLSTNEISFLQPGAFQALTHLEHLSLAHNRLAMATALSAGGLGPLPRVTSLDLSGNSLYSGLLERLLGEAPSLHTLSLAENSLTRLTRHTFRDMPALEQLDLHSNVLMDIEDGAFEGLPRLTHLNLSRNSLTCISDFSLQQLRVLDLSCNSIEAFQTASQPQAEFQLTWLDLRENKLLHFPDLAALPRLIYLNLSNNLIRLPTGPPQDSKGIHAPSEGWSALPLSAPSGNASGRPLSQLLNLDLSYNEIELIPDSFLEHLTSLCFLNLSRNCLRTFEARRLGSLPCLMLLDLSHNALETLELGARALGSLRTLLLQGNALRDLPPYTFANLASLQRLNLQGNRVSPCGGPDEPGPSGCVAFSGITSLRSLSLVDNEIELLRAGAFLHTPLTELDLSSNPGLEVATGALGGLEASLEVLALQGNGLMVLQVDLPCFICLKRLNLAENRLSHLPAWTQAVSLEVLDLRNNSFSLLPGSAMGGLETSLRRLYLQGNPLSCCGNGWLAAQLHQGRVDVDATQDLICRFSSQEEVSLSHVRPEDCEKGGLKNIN", "experiment": "Octet (BLI) binding, IgG captured on AHC tips, antigen at 100 nM", "conditions": "Table 9; cycle 3; IgG1-agly; 1:1 fit; N.B. = non-binder under conditions of this assay", "description": "(§1) Suitable methods for in vitro binding assays to determine the parameters of binding kinetics include Bio-layer Interferometry (BLI)-based assays such as Octet, and surface plasmon resonance (SPR)-based assays, such as Biacore systems (see, for example: biophysics.bioc.cam.ac.uk/wp-content/uploads/2011/02/Biacore_assay_handbook.pdf).\n(§2) The affinity of SR-AB10, SR-AB2 and SR-AB13 was measured by Octet assay. The protocol used to measure the affinity of the antibodies to the complexes provided herein is summarized below.\n(§3) • 96 well black polypropylene plates • AHC Octet tips (anti-human IgG Fc capture tips) (FortdBio) • 10× kinetics buffer (FortdBio) (diluted to 1× in PBS) • reiner Bio-One 96-Well Half Area Microplates (VWR cat #82050-044) Procedure:\n(§4) Notes: The volume within each well during an Octet experiment is 100 uL.\n(§5) A shake speed of 1000 rpm is used for all assay steps.\n(§6) Pre-Wet Tips: • Biosensors must be pre-wet in 1× kinetics buffer (lx KB) for at least 10 minutes before starting an experiment. This can be done inside the Octet or on the bench.\n(§7) Loading: • Tips are baselined in 1× KB for 1 minute before loading. • AHC tips are loaded with antibody at a concentration of 1 μg/mL (˜7 nM) for 3 minutes. A limit is set so that loading will stop when any one sensor reaches a response of 1 nanometer. • Tips are baselined in buffer for 1 minute after loading. The antibody should not dissociate from the tips during this time.\n(§8) Antigen Association: • TGFβ1 in complex with various presentation molecules was associated to the immobilized antibodies at a single concentration of 100 nM in 1× KB.\n(§9) Antibody Dissociation: • Dissociation in 1×KB was performed for 3 minutes.\n(§10) Data Analysis using ForteBio Data analysis software 8.2: • Processing: align Y axis to last 5 seconds of baseline, perform inter-step correction with align to dissociation, and perform Savitzky-Golay filtering. • Analysis: 1:1 fitting model is utilized. Fitting is local and full. […] Results:\n(§11) LTBP complex-specific antibodies from the first round of affinity maturation/optimization (SR-AB14, SR-AB16, SR-AB17, SR-AB18, SR-AB19) were selected for a second round of affinity maturation/optimization (i.e., CDR-H3 mutagenesis as described herein) and particular progeny antibodies (SR-AB20, SR-AB21, SR-AB22, SR-AB23, SR-AB24, SR-AB25, SR-AB26, SR-AB27, SR-AB28, and SR-AB29) were assessed for their ability to bind various proTGFβl constructs. Binding affinities of the optimized antibodies were measured by Octet against human LTBP1-proTGFβI, human LTBP3-proTGFb1, mouse LTBP1-proTGFβ1, mouse LTBP3-proTGFb1, and GARP-proTGFβl complexes, essentially as described in Example 6. In brief, test antibodies were immobilized to the surface of anti-human Fc capture biosensors (AHC) (ForteBio®) and binding was then tested against the various TGFβ1 complexes at a single concentration of 100 nM to assess binding affinities. The antigens were allowed to associate for 3 minutes followed by a 5-minute dissociation. Kinetics buffer (ForteBio®) was used throughout the experiment, and KD was determined using a 1:1 fitting model for each antibody antigen pair.\n(§12) Binding affinities of the optimized antibodies were measured by Octet against human LTBP1-proTGFβ1, human LTBP3-proTGFβ1, mouse LTBP1-proTGFβ1, mouse LTBP3-proTGFβ1, and GARP-proTGFβ1 complexes, essentially as described in Example 6. In brief, test antibodies were immobilized to the surface of anti-human Fc capture biosensors (AHC) (ForteBio®) and binding was then tested against the various TGFβ1 complexes at a single concentration of 100 nM to assess binding affinities. The antigens were allowed to associate for 3 minutes followed by a 5-minute dissociation. Kinetics buffer (ForteBio®) was used throughout the experiment, and KD was determined using a 1:1 fitting model for each antibody antigen pair. […]", "values": [{"molecule": "B1", "ForteBio IgG KD Hu GARP-proTGFβ1 (M) Avid": "N.B."}, {"molecule": "B2", "ForteBio IgG KD Hu GARP-proTGFβ1 (M) Avid": "N.B."}, {"molecule": "B3", "ForteBio IgG KD Hu GARP-proTGFβ1 (M) Avid": "N.B."}]}, {"molecular_target": "huGARP proTGFβ1 (Homo sapiens, UniProt P01137)", "experiment": "Octet (BLI) binding, IgG captured on AHC tips, antigen at 100 nM", "conditions": "Table 10; same assay conditions as Table 9; N.B. = non-binder under conditions of this assay", "description": "as §1, §2, §3, §4, §5, §6, §7, §8, §9, §10, §11, §12", "values": [{"molecule": "B1", "ForteBio IgG KD Hu GARP-proTGFβ1 in solution (M) Avid": "N.B."}, {"molecule": "B2", "ForteBio IgG KD Hu GARP-proTGFβ1 in solution (M) Avid": "N.B."}, {"molecule": "B3", "ForteBio IgG KD Hu GARP-proTGFβ1 in solution (M) Avid": "N.B."}]}, {"molecular_target": "huLTBP1 proTGFβ1 (Homo sapiens, UniProt P01137+Q14766)", "sequence (P01137 30-390)": "as the sequence (P01137 30-390) above", "sequence (Q14766 347-1721 limits assumed)": "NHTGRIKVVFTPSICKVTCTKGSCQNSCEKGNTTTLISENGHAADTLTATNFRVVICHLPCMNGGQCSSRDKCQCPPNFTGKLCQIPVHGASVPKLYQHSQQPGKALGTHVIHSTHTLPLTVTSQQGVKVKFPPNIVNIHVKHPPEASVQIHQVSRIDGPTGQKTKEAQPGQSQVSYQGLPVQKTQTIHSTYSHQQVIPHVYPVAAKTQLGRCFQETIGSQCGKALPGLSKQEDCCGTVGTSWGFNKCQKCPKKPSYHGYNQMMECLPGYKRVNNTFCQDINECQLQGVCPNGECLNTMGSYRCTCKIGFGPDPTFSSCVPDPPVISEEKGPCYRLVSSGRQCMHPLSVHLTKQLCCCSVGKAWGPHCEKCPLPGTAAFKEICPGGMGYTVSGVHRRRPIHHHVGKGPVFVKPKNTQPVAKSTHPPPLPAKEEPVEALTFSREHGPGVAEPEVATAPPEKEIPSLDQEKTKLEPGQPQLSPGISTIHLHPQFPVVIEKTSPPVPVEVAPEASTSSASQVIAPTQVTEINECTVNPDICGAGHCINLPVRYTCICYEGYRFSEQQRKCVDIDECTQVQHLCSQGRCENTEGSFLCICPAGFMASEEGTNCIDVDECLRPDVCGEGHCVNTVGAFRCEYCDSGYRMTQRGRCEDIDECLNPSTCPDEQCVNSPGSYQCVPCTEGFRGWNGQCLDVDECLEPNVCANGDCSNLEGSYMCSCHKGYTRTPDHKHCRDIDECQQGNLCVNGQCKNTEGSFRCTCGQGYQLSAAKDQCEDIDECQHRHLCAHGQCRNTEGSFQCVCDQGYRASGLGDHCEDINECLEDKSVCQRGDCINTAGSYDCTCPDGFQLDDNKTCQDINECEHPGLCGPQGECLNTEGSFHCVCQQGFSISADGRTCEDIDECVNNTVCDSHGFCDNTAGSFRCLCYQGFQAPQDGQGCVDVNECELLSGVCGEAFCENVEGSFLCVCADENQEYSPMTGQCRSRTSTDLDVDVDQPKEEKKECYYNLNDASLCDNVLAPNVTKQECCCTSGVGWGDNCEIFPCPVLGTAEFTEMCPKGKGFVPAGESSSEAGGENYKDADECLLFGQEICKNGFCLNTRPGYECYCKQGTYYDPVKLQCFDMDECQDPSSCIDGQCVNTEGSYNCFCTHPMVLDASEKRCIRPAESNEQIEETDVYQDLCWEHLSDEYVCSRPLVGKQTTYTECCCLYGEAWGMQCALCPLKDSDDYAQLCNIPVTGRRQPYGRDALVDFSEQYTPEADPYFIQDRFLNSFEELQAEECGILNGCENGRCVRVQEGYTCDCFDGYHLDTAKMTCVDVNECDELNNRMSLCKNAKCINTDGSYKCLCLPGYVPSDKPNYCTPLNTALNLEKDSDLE", "experiment": "Octet (BLI) binding, IgG captured on AHC tips, antigen at 100 nM", "conditions": "Table 9; cycle 3; IgG1-agly; 1:1 fit", "description": "as §1, §2, §3, §4, §5, §6, §7, §8, §9, §10, §11, §12", "units": {"Hu LTBP1-proTGFβ1 Kon": "M⁻¹ s⁻¹"}, "values": [{"molecule": "B1", "Hu LTBP1-proTGFβ1 Kon": 150000}, {"molecule": "B2", "Hu LTBP1-proTGFβ1 Kon": 140000}]}, {"molecular_target": "huLTBP1 proTGFβ1 (Homo sapiens, UniProt P01137+Q14766)", "experiment": "Octet (BLI) binding, IgG captured on AHC tips, antigen at 100 nM", "conditions": "Table 9; cycle 3; IgG1-agly; 5-minute dissociation", "description": "as §1, §2, §3, §4, §5, §6, §7, §8, §9, §10, §11, §12", "units": {"Hu LTBP1-proTGFβ1 Koff": "s⁻¹"}, "values": [{"molecule": "B1", "Hu LTBP1-proTGFβ1 Koff": "6e-05"}, {"molecule": "B2", "Hu LTBP1-proTGFβ1 Koff": "6.82e-05"}]}, {"molecular_target": "huLTBP3 proTGFβ1 (Homo sapiens, UniProt P01137+Q9NS15)", "sequence (P01137 30-390)": "as the sequence (P01137 30-390) above", "sequence (Q9NS15 44-1303)": "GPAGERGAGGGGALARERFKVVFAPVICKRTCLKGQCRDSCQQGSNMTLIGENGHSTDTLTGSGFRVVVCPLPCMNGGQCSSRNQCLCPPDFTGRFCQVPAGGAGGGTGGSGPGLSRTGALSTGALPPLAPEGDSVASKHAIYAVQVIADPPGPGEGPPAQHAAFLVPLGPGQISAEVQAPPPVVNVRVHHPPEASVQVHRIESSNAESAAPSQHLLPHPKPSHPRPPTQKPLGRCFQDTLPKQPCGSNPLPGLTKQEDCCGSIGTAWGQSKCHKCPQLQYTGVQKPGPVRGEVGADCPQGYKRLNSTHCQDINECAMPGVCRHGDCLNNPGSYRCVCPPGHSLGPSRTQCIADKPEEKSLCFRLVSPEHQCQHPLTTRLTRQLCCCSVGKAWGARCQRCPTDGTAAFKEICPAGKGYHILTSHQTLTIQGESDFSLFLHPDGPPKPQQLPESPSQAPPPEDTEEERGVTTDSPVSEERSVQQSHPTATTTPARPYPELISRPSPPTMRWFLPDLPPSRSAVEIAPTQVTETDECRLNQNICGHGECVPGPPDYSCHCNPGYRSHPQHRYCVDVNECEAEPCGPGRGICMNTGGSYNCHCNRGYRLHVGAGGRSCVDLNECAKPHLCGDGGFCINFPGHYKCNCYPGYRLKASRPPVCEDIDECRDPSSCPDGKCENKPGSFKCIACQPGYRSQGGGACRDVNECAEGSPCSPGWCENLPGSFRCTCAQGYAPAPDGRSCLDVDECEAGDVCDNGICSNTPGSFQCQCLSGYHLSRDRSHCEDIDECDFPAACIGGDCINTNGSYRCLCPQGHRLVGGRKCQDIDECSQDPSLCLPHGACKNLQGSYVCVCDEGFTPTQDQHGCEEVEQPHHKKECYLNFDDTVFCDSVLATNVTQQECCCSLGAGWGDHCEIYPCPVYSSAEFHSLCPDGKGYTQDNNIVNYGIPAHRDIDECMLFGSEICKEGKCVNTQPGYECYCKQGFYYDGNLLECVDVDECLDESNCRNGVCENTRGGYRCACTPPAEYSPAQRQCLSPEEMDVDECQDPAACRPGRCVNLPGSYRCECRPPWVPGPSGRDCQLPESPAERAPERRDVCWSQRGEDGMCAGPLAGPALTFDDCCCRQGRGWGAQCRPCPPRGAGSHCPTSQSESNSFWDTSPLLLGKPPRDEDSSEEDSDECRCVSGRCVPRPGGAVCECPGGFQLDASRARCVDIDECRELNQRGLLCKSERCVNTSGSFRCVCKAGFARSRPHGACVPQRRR", "experiment": "Octet (BLI) binding, IgG captured on AHC tips, antigen at 100 nM", "conditions": "Table 9; cycle 3; IgG1-agly; 1:1 fit", "description": "as §1, §2, §3, §4, §5, §6, §7, §8, §9, §10, §11\n(§13) Binding affinities of the optimized antibodies were measured by Octet against human LTBP1-proTGFβ1, human LTBP3-proTGFβ1, mouse LTBP1-proTGFβ1, mouse LTBP3-proTGFβ1, and GARP-proTGFβ1 complexes, essentially as described in Example 6. In brief, test antibodies were immobilized to the surface of anti-human Fc capture biosensors (AHC) (ForteBio®) and binding was then tested against the various TGFβ1 complexes at a single concentration of 100 nM to assess binding affinities. The antigens were allowed to associate for 3 minutes followed by a 5-minute dissociation. Kinetics buffer (ForteBio®) was used throughout the experiment, and KD was determined using a 1:1 fitting model for each antibody antigen pair.", "units": {"Hu LTBP3-proTGFβ1 Kon": "M⁻¹ s⁻¹"}, "values": [{"molecule": "B1", "Hu LTBP3-proTGFβ1 Kon": 182000}, {"molecule": "B2", "Hu LTBP3-proTGFβ1 Kon": 203000}, {"molecule": "B3", "Hu LTBP3-proTGFβ1 Kon": 195000}]}, {"molecular_target": "huLTBP3 proTGFβ1 (Homo sapiens, UniProt P01137+Q9NS15)", "experiment": "Octet (BLI) binding, IgG captured on AHC tips, antigen at 100 nM", "conditions": "Table 9; cycle 3; IgG1-agly; 5-minute dissociation", "description": "as §1, §2, §3, §4, §5, §6, §7, §8, §9, §10, §11, §13", "units": {"Hu LTBP3-proTGFβ1 Koff": "s⁻¹"}, "values": [{"molecule": "B1", "Hu LTBP3-proTGFβ1 Koff": "6.07e-05"}, {"molecule": "B2", "Hu LTBP3-proTGFβ1 Koff": "7.47e-05"}, {"molecule": "B3", "Hu LTBP3-proTGFβ1 Koff": "9.18e-05"}]}, {"tested_on": "proTGFβ1 presented by endogenous LTBP1/3 in LN229 cells", "sequence (P01137 30-390)": "as the sequence (P01137 30-390) above", "experiment": "Endogenous LTBP caga assay: LN229 cells transfected with human proTGFβ1 only, CAGA12 luciferase reporter cells", "type": "cell-based", "conditions": "Table 20: protocol of Example 10 with Fabs (RefAb also as hIgG4), assay format not stated", "units": {"IC50": "pM"}, "values": [{"molecule": "B4", "IC50": 5870}, {"molecule": "B5", "IC50": 11000}, {"molecule": "B6", "IC50": 1180}, {"molecule": "B7", "IC50": 1020}, {"molecule": "B8", "IC50": 668}, {"molecule": "B9", "IC50": 536}, {"molecule": "B10", "IC50": 195}, {"molecule": "B11", "IC50": 439}, {"molecule": "B12", "IC50": 459}, {"molecule": "B13", "IC50": 775}, {"molecule": "B14", "IC50": 4860}, {"molecule": "B15", "IC50": 742}, {"molecule": "B16", "IC50": 8530}, {"molecule": "B17", "IC50": 186}]}]}
